B1: A2 (ssDNA)
DNA: TGGTGGTAACAGACCCTTCCACGGC
B2: A1 (structured_DNA)
DNA: CCGCGTACAATCGAGCTCGGGTGTC

Assays:
[1] = target: rPrP90-231 (globular domain of recombinant prion protein) (murine, UniProt P04925 90-231); experiment: ITC
[2] = target: rPrP23-231 (full-length recombinant prion protein) (murine, UniProt P04925 23-231); experiment: ITC

Binder | Kd [1] [µM] | Kd [2] [µM]
B1 | 1.93 | 1.47
B2 | 0.232 | 0.838

Source: doi:10.1101/659037
